Assays:
CT26 tumor = test: CT26 syngeneic mouse tumor model; format: in vivo; conditions: for effect of doxorubicin on the inhibition of tumor growth by the antibody: CT26, antibody 3 mg/kg + Doxorubicin 2 mg/kg; for tumor growth in vivo: CT26 in BALB/c mice, antibody 3 mg/kg intraperitoneally twice a week for two weeks
Protocol: Syngeneic models are allografts immortalized from mouse cancer cell lines, which are then grafted back into the same inbred immunocompetent mouse strain. CT26 is an N-nitroso-N-methylurethane-(NNMU) induced undifferentiated fibroblastic colon carcinoma cell line established from BALB/c mice with aggressive colon carcinoma. C26 cells were purchased from ATCC® (CRL-2638™) and maintained in RPMI-1640 medium supplemented with 10% FBS and 1% penicillin, 1% streptomycin at 37° C., 5% CO2. Cell lines used were authentic and confirmed to be mycoplasma negative. The cells are adherent with a fibroblast morphology and will form tumors and metastases post implantation into syngeneic BALB/c mice or immunocompromised mice.
1×10^6 cells diluted inPBS:Matrigel (1:1) were subcutaneously implanted using a 27G insulin syringe into anesthetized […] old female Balb/c mice under aseptic conditions. All animal maintenance, handling, surveillance, and animal procedures were performed in accordance with an approval from the APLAC protocol.
Once tumors reached 100-150 mm^3, mice were randomized into 6 groups of five mice each: • 1. Control isotype 3 mg/kg, • 2. Control isotype 3 mg/kg+Doxorubicin 2 mg/kg • 3. KNJY C1-831 3 mg/kg • 4. KNJY C1-831 3 mg/kg+Doxorubicin • 5. KNJY C1-787A 3 mg/kg • 6. KNJY C1-787A 3 mg/kg+Doxorubicin 2 mg/kg.
Doxorubicin is soluble in water. All test articles were dosed intraperitoneally twice a week for two consecutive weeks. Antibodies were dosed 4 hr prior to Doxorubicin.
Tumors were measured three times a week using a calibrated Vernier Caliper and tumor volume calculated as per the formula ½*L*S*S, where L is the long axis and S is the short axis of the tumor. Body weights were recorded before treatment started and were continuously monitored throughout the study. Animals were euthanized when turning moribund according to the above-mentioned predefined criteria rapid weight loss, loss of ability to ambulate, labored respiration, or inability to drink or feed to avoid animal suffering.

human ABCC1 [1] = molecular target: T1, human ABCC1 (Homo sapiens, UniProt P33527); test: Titration binding assay of humanized antibodies (FIGS. 8A-8C), human ABCC1; set-up: expressed in transfected cells; host or cells: 293T (HEK 293T) cells; conditions: cell line not stated
T1 sequence (P33527 whole entry, the tested form may be a part): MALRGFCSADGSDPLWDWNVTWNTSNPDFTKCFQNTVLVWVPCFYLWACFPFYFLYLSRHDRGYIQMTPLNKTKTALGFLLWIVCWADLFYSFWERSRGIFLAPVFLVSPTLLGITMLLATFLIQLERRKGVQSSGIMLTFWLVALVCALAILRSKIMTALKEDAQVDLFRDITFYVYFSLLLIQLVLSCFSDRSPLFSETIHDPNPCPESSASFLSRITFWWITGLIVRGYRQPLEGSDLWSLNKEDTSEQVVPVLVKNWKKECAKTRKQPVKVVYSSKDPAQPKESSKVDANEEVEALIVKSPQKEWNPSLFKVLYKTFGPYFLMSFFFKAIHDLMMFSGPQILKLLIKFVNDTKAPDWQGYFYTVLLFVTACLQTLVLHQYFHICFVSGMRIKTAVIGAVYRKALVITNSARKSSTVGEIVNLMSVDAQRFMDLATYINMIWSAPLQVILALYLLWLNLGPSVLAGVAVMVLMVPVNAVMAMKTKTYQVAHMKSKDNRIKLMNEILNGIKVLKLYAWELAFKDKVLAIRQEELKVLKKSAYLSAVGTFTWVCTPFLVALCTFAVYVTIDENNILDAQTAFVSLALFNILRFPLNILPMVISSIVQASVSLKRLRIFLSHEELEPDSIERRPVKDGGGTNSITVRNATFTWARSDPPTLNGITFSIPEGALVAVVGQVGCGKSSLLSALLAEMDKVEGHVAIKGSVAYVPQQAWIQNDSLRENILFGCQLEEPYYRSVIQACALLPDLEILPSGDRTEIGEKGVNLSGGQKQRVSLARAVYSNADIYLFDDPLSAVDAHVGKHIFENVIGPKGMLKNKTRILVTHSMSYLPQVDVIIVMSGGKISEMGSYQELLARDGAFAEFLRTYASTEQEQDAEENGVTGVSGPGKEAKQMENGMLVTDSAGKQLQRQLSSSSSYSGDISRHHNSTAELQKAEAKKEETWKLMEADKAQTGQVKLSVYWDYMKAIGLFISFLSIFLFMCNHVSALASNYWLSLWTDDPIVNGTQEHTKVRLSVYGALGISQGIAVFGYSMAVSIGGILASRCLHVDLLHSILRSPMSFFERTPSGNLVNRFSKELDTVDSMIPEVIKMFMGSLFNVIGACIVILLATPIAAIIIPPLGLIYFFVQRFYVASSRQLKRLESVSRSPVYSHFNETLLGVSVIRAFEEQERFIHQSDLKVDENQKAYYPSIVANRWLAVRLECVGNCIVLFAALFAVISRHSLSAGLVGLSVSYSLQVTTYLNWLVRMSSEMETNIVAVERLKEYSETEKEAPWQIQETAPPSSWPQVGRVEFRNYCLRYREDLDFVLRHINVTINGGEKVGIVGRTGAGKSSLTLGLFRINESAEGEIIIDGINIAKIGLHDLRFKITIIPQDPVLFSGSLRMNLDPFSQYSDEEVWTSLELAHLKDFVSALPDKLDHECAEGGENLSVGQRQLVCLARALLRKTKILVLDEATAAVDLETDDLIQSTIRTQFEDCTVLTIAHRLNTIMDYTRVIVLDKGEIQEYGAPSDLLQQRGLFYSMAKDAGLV
Protocol: (§1) Binding titration of recombinant antibodies to KPC1 transfectants was performed by serial dilution of antibodies from about 666 nM, Diluted antibody in flow cytometry buffer was incubated with cells on ice for 30 min. After 2 washes with flow cytometry buffer, bound antibody was detected with PE-labeled F(ab′)2 fragment goat anti-human IgG (Jackson ImmunoResearch) diluted 1:200 in flow cytometry buffer and incubated with cells for 20 min on ice. After 2 washes with flow cytometry buffer fluorescence was measured on an Attune NxT flow cytometer. Data were analyzed with GraphPad Prism 8.0 software to determine EC50's.

human ABCC1 [2] = molecular target: T1, human ABCC1; test: ABCC1 efflux assay in HEK293T cells expressing human ABCC1; format: cell-based; set-up: expressed in transfected cells; host or cells: 293T (HEK 293T) cells; conditions: HEK293T cells expressing human ABCC1, Calcein AM fluorescence
Protocol: HEK 293T cells expressing human ABCC1 were washed several times and aliquoted into 96-well plates as 50 μl aliquots/well at a cell density of 1×10^6 cells per ml in phenol red-free DMEM. Cells were mixed with 50 μl antibodies and incubated for 1.5 h at 37° C. The cells were then washed twice and finally resuspended in […] PBS. Calcein AM fluorescence was measured by flow cytometry.

cynomolgus ABCC1 [3] = molecular target: T2, cynomolgus ABCC1 (Macaca fascicularis, UniProt Q864R9); test: Titration binding assay of humanized antibodies (FIGS. 8A-8C), cynomolgus ABCC1; set-up: expressed in transfected cells; host or cells: 293T cells; conditions: cell line not stated
T2 sequence (Q864R9 whole entry): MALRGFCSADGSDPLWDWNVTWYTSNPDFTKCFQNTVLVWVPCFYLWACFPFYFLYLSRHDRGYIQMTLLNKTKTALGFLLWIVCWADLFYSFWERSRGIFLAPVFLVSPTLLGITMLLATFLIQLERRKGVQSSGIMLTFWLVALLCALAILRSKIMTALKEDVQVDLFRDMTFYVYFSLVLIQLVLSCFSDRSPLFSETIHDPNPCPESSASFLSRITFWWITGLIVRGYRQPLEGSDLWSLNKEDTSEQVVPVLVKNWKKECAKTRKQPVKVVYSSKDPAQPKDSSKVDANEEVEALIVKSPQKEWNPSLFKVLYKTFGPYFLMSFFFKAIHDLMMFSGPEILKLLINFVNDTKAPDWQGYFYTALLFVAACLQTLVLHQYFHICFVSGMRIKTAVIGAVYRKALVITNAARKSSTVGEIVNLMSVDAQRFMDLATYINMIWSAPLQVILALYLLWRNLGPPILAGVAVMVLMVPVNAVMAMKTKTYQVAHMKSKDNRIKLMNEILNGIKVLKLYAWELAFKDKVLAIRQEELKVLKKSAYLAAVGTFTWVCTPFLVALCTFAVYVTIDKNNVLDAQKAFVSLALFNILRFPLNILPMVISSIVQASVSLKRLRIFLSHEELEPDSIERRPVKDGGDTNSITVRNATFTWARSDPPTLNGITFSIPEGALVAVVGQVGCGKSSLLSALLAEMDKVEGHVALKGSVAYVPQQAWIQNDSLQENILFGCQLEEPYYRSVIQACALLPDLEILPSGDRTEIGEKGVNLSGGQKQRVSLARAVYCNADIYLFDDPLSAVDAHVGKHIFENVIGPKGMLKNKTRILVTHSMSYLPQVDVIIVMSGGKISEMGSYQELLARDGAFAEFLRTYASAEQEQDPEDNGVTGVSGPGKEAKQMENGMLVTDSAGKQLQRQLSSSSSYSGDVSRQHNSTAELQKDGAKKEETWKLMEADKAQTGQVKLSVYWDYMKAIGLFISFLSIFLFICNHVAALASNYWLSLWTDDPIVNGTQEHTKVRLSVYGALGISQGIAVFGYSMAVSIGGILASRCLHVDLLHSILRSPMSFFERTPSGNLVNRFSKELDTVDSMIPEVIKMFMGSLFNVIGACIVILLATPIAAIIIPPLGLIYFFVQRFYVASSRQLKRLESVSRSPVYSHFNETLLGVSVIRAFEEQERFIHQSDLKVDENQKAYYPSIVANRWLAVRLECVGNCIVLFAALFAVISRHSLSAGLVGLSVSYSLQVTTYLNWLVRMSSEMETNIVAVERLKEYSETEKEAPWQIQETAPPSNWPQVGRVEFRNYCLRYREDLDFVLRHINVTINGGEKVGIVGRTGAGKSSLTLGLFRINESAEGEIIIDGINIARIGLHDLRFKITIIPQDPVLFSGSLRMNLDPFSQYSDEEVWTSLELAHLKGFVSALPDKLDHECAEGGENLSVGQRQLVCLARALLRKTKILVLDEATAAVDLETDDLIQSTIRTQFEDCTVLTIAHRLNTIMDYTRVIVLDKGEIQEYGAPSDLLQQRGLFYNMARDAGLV
Protocol: as §1

human ABCC1 [4] = molecular target: T1, human ABCC1; test: Titration binding to human ABCC1-overexpressing rat C6 glioma cells (FACS); set-up: expressed in transfected cells
cynomolgus ABCC1 [5] = molecular target: T2, cynomolgus ABCC1; test: Titration binding to cynomolgus ABCC1-overexpressing rat C6 glioma cells (FACS); set-up: expressed in transfected cells

| Molecule | binding to human ABCC1 in the titration binding assay (human ABCC1 [1]) | inhibition of the efflux function of the ABCC1 transporter (human ABCC1 [2]) | binding to cynomolgus ABCC1 in the titration binding assay (cynomolgus ABCC1 [3]) | binding to C6 cells overexpressing human ABCC1 (human ABCC1 [4]) | binding to C6 cells overexpressing cynomolgus ABCC1 (cynomolgus ABCC1 [5]) | other results |
| --- | --- | --- | --- | --- | --- | --- |
| C1.831: anti-ABCC1 antibody, VH SEQ ID NO: 16, VL SEQ ID NO: 90 (antibody, listed as Rattus norvegicus, V domains shown) VH: EVQLTESGPGLVQPSQTLSLTCTVSGFSLTSNGVSWVRQPPGKGLEWIAAISSGGNIYYNSVLKSRLSISRDTSKSQVFLKMSSVQTEDTAIYFCTRERGWNYPFITNGYYFDYWGQGVMVTVSS VL: EIMLTQSPSLLSASVGDRVTLSCKAGQNINNYLAWYQQKLGEAPKLLIYNANSLQTGIPSRFSGSGSGTDYTLTISSLQPEDVATYFCQQYNSWYTFGAGTKLEIK |  |  |  |  |  | effect of doxorubicin on the inhibition of tumor growth by the antibody (CT26 tumor): enhanced by doxorubicin; tumor growth in vivo (CT26 tumor): inhibit tumor growth |
| C1.831.hu11: humanized anti-ABCC1 antibody, VH SEQ ID NO: 29, VL SEQ ID NO: 108 (antibody, V domains shown, humanized sequence) VH: EVQLQESGPGLVKPSETLSLTCTVSGFSLTSNGVSWVRQPPGKGLEWIAAISSGGNIYYNSVLKSRLTISRDTSKNQVSLKLSSVTAADTAVYYCTRERGWNYPFITNGYYFDYWGQGTLVTVSS VL: DIQLTQSPSSLSASVGDRVTITCKAGQNINNYLAWYQQKPGKAPKLLIYNANSLQTGIPSRFSGSGSGTDYTLTISSLQPEDFATYYCQQYNSWYTFGQGTKLEIK | bind both human and cynomolgus ABCC1 | significantly inhibit the efflux function | bind both human and cynomolgus ABCC1 |  |  |  |
| C1.861.hu11: humanized anti-ABCC1 antibody, VH SEQ ID NO: 33, VL SEQ ID NO: 110 (antibody, V domains shown, humanized sequence) VH: EVQLQESGPGLVKPSETLSLTCTVSGFSLTSNGVTWVRQPPGKGLEWIAAISSGGNIYYNSAVKSRLTISRDTSKNQVSLKLSSVTAADTAVYYCTRARGTTTAYVMDAWGQGTTVTVSS VL: DVQLTQSPSSLSASVGDRVTITCKSSQSLLYSGNQKNYLAWYQQKPGKSPKLLIYWASTRQSGVPSRFSGSGSGTDFTLTISSLQPEDVATYYCQQYYDVLMNMFGGGTKLEIK | bind both human and cynomolgus ABCC1 | significantly inhibit the efflux function | bind both human and cynomolgus ABCC1 |  |  |  |
| C1.861.hu21: humanized anti-ABCC1 antibody, VH SEQ ID NO: 34, VL SEQ ID NO: 110 (antibody, V domains shown, humanized sequence) VH: EVQLVESGGGLIQPGGSLRLSCAVSGFSLTSNGVTWVRQPPGKGLEWIAAISSGGNIYYNSAVKSRLTISRDTSKNTVYLQMNSLRAEDTAVYFCTRARGTTTAYVMDAWGQGTTVTVSS VL: DVQLTQSPSSLSASVGDRVTITCKSSQSLLYSGNQKNYLAWYQQKPGKSPKLLIYWASTRQSGVPSRFSGSGSGTDFTLTISSLQPEDVATYYCQQYYDVLMNMFGGGTKLEIK | bind both human and cynomolgus ABCC1 | significantly inhibit the efflux function | bind both human and cynomolgus ABCC1 |  |  |  |
| C1.844.hu21: humanized anti-ABCC1 antibody, VH SEQ ID NO: 32, VL SEQ ID NO: 109 (antibody, V domains shown, humanized sequence) VH: EVQLVESGGGLIQPGGSLRLSCAVSGFSLTSNGVIWVRQPPGKGLEWIAAISSGGNIYYNSGLKSRLTISRDTSKNTVYLQMNSLRAEDTAVYYCTRARGTTTAYVMDAWGQGTLVTVSS VL: DIVMTQSPDSLAVSLGERATINCKSSQSLLYSVNQKNYLAWYQQKPGQSPKLLIYWASTRQSGVPDRFSGSGSGTDFTLTISSLQAEDVAVYYCQQYYDTLMKMFGAGTKLELK | bind both human and cynomolgus ABCC1 | significantly inhibit the efflux function | bind both human and cynomolgus ABCC1 |  |  |  |
| C1.787a: anti-ABCC1 antibody, VH SEQ ID NO: 11, VL SEQ ID NO: 86 (antibody, listed as Rattus norvegicus, V domains shown) VH: EVQLTESGPGLVQPSQTLSLTCTVSGFSLTSNGVSWVRQPPGKGLEWIAAISSGGSTYYNSAFKSRLSISRHTSKSQVLLNMNSLQTEDTAMYFCARHRGYYWSNWGYFDYWGQGVMVTVSS VL: NIQLTQSPSLLSASVGDRVTLSCKGSQNINNYLAWYQQKLGEAPKLLIYKTNSLQTGIPSRFSGSGSGTDYTLTLSSLHSEDLATYYCCQYNDGYTFGAGTKLELK |  |  |  |  |  | effect of doxorubicin on the inhibition of tumor growth by the antibody (CT26 tumor): enhanced by doxorubicin; tumor growth in vivo (CT26 tumor): inhibit tumor growth |
| C1.851.hu12: humanized anti-ABCC1 antibody, VH SEQ ID NO: 27, VL SEQ ID NO: 105 (antibody, V domains shown, humanized sequence) VH: EVQLQESGPGLVKPSETLSLTCTVSGFSLTNNGVSWIRQPPGKGLEWIAAISSGGNIYYNSAFKSRLTISRDTSKNQVSLKLSSVTAADTAVYYCARHRGYYGYNWGYFDYWGQGTLVTVSS VL: DIQLTQSPSSLSASVGDRVTITCKGSQNINNYLAWYQQKPGKAPKLLIYKTNSLQTGIPSRFSGSGSGTDYTLTISSLQPEDFATYYCYQYNNGYTFGQGTKLEIK |  |  |  | retain the ability to bind both human and cynomolgus ABCC1 | retain the ability to bind both human and cynomolgus ABCC1 |  |
| C1.851.hu15: humanized anti-ABCC1 antibody, VH SEQ ID NO: 27, VL printed as SEQ ID NO: 77, LCDR3 SEQ ID NO: 149 (antibody, V domains shown, humanized sequence; Mus musculus or humanized sequence) VH: EVQLQESGPGLVKPSETLSLTCTVSGFSLTNNGVSWIRQPPGKGLEWIAAISSGGNIYYNSAFKSRLTISRDTSKNQVSLKLSSVTAADTAVYYCARHRGYYGYNWGYFDYWGQGTLVTVSS VL: DVVMTQAPSSLSASLGERISLTCRASQDIYGSLNWFQQKPDGTIKLLIYGTSSLDSGVPKRFSGSRSGSDYSLTISSLESEDFADYYCLQYASSPYTFGGGTKLEIK |  |  |  | retain the ability to bind both human and cynomolgus ABCC1 | retain the ability to bind both human and cynomolgus ABCC1 |  |
| C1.851.hu14: humanized anti-ABCC1 antibody, VH SEQ ID NO: 27, VL printed as SEQ ID NO: 76, LCDR3 SEQ ID NO: 148 (antibody, V domains shown, humanized sequence; Mus musculus or humanized sequence) VH: EVQLQESGPGLVKPSETLSLTCTVSGFSLTNNGVSWIRQPPGKGLEWIAAISSGGNIYYNSAFKSRLTISRDTSKNQVSLKLSSVTAADTAVYYCARHRGYYGYNWGYFDYWGQGTLVTVSS VL: DVVMTQTPLSLPVSLGDQASISCRSSQSIVHSNGNTYLEWYLQKPGQSPKLLIYKVSNRFSGVPDRFSGSGTGTDFTLKISRVEAEDLGVYYCFQGSHVPRTFGGGTKLEIK |  |  |  | retain the ability to bind both human and cynomolgus ABCC1 | retain the ability to bind both human and cynomolgus ABCC1 |  |
